From US12247062 (1GLOBE BIOMEDICAL, dated 2025) come the findings set out here.

The assay has as its target T1, rituximab (RITUXAN), coated on CD20+ Daudi cells.
T1 construct: also called MABTHERA; ZYTUX
As to the kind of experiment: flow cytometry titrations compared: rituximab-coated Daudi cells against Jurkat cells (CD3). From the text:
Figure 12: FIG. 12 schematically depicts an assay using Daudi cells to test the ability of an Adapter-like ADCC Enhancer of the present invention to bind CD20+ target cells coated with RITUXAN (rituximab). Figure 13: FIG. 13 illustrates FACS data showing, in an assay according to FIG. 12, the binding between Daudi cells and the ADCC Enhancer of the invention before purification ("Sample Load") and after purification ("Purified Protein"). Figure 14: FIG. 14 illustrates FACS data showing titration of binding between Daudi cells and the ADCC Enhancer of the invention at various concentrations. The volume of the Enhancer in microliters are indicated in the upper right corner of the top six diagrams as: 50, 25, 12.5, 6.25, 3.13 and 1.56 microliters. The bottom diagram summarizes the data. CD20+ Daudi cells were coated with RITUXAN (rituximab) (anti-CD20 antibody) and excess RITUXAN (rituximab) was removed by washing the cells with PBS. RITUXAN (rituximab)-coated cells were incubated with various amounts of the Enhancer, and excess Enhancer was removed by washing the cells in PBS. Bound Enhancer proteins were detected using fluorescent anti-human CD64 antibody.
With tagged protein, binding affinity can also be detected using a fluorescently tagged anti-tag antibody. This approach can also be used to detect binding of the CD64 domain by rituximab-coated CD20⁺ Daudi cells (see FIG. 12). […]

B1: CD64-dhOKT3 fusion protein (Adapter-like ADCC Enhancer) (other)
chain: QVDTTKAVITLQPPWVSVFQEETVTLHCEVLHLPGSSSTQWFLNGTATQTSTPSYRITSASVNDSGEYRCQRGLSGRSDPIQLEIHRGWLLLQVSSRVFTEGEPLALRCHAWKDKLVYNVLYYRNGKAFKFFHWNSNLTILKTNISHNGTYHCSGMGKHRYTSAGISVTVKELFPAPVLNASVTSPLLEGNLVTLSCETKLLLQRPGLQLYFSFYMGSKTLRGRNTSSEYQILTARREDSGLYWCEAATEDGNVLKRSPELELQVLSSGGGGSQVQLVQSGGGVVQPGRSLRLSCKSSGYTFTRYTMHWVRQAPGKGLEWIGYINPSRGYTNYNQKVKDRFTISRDNSKNTAFLQMDSLRPEDTGVYFCARYYDDHYCLDYWGQGTPVTVSSVEGGSGGSGGSGGSGGVDDIQMTQSPSSLSASVGDRVTITCRASSSVSYMNWYQQTPGKAPKRWIYDTSKVASGVPSRFSGSGSGTDYTFTISSLQPEDIATYYCQQWSSNPLTFGQGTKLQIT
notes: Expressed in Expi293 cells and used as culture supernatant or after IgG Sepharose purification; Untagged; also called Soluble Universal ADCC Enhancer Protein; SUAEP
For B1, the “fold stronger Fc- or antibody-binding than CD3-binding” value was roughly 30 fold.
